# Measured values: patent US20020110800A1, “Use of SHP-1 and SHP-2 to detect compounds involved in neuronal survival” (McGill University, priority 1997, published 2002)
# Test system: SHP-2
# Assay: BDNF-stimulated association of SHP-2 with tyrosine-phosphorylated proteins in cortical neurons
# Assay type: cell-based, rat
# From the text: FIG. 5 is a Western blot showing that BDNF stimulates the association of SHP-2 with tyrosine phosphorylated proteins in cortical neurons. Lysates prepared from cortical neurons treated with or without BDNF were immunoprecipitated with anti-SHP-2 antibody and probed with anti-pTyr antibody.
# To determine the mechanism whereby the neutrotrophins stimulate the survival and growth of normal and injured neurons, we have asked whether the phosphoprotein phosphatases SHP-1 and SHP-2 play a role in the differentiation and survival of primary neurons, focusing our studies on cultured rat sympathetic cervical ganglion (SCG) and cortical neurons in order to determine the exact nature of this regulation.
# Immunoprecipitations and immunoblotting were performed as previously described (Kaplan et al., Science, 252:554-558, 1991). […]
molecule,measurement,value
"BDNF: brain-derived neurotrophic factor, a neurotrophin, obtained from Peprotech (protein, UniProt P23560 19-247, looked up) Neurotrophic factor BDNF …: APMKEANIRGQGGLAYPGVRTHGTLESVNGPKAGSRGLTSLADTFEHVIEELLDEDQKVRPNEENNKDADLYTSRVMLSSQVPLEPPLLFLLEEYKNYLDAANMSMRVRRHSDPARRGELSVCDSISEWVTAADKKTAVDMSGGTVTVLEKVPVSKGQLKQYFYETKCNPMGYTKEGCRGIDKRHWNSQCRTTQSYVRALTMDSKKRIGWRFIRIDTSCVCTLTIKRGR",association of tyrosine-phosphorylated proteins with SHP-2,causes the association of tyrosine-phosphorylated proteins with SHP-2
